A word on the koff: it is the first-order rate constant of dissociation.

In this assay the target is ML/HLA-A2 pMHC, soluble recombinant (human | ). The assay can be described thus: SPR. Background: SPR reads the build-up and loss of mass on a sensor chip optically.

B1: fML soluble recombinant Fab (Fab, V domains shown)
VH: EVQLVESGGGLVQPGGSLRLSCAASGFNFSYYSIHWVRQAPGKGLEWVASIYSSSSYTSYADSVKGRFTISADTSKNTAYLQMNSLRAEDTAVYYCARGYYGEWGMDYWGQGTLVTVSS
VL: DIQMTQSPSSLSASVGDRVTITCRASQSVSSAVAWYQQKPGKAPKLLIYSASSLYSGVPSRFSGSRSGTDFTLTISSLQPEDFATYYCQQWNAYPVTFGQGTKVEIK
With B1, the koff worked out at 0.016 s⁻¹.

The record behind these values is publication PMC3423377 (2012).
